Experimental data taken from patent US20150376237A1, “POLYPEPTIDES FOR BLOOD BRAIN BARRIER TRANSPORT” (SAGETIS BIOTECH, SL, priority 2012, published 2015).

Tested on: in vitro BBB model (bovine brain endothelial cells co-cultured with mouse mixed glial cells)
Experiment: Fluorescently-labelled peptide in vitro BBB model crossing test
Conditions: fluorescent peptide, 20 μg/ml fluorophore in DMEM/F12, 60 min at 37° C.
Procedure: Mouse primary cultures of mixed glial cells are seeded on a 24-well plate and bovine brain endothelial cells are cultured on collagen-coated inserts in another plate. After three days, the inserts are moved into astrocyte-containing plates and cultured for a further three days. To assess the integrity of the in vitro BBB, trans-endothelial electrical resistance (TEER) is measured on the day of the experiment. TEER values higher than 200Ω/cm^2 are considered acceptable.
Peptides are applied at 20 μg/ml of fluorophore in the luminal side of the inserts and placed in wells filled with Ringer-Hepes buffer (the composition of Ringer-Hepes buffer is described above). After 1 h incubation, samples from the upper and lower compartments are collected and measured using a fluorimeter. […]
All samples (t=0 up, t=0 down, t=60 up and t=60 down) from each condition (testing peptides and negative control) are plated in black 96-well microplates as well as the corresponding standard curves. Fluorescence is measured using a multi-well plate reader. […]
The endothelial permeability coefficient values for LY and the tested peptide are also determined. […] The increment in cleared volume between the incubation times is calculated by dividing the amount of transported compound by the donor chamber concentration and calculating the total volume cleared, as shown below: […]

Substance: SEQ ID NO: 12: GDAAAAKAAKAAAKAAADGY, rigid polypeptide, single domain binder (Rigid_1)
- Percentage BBB crossing: Percentage BBB crossing: 7.51%
